What was measured:
Experiment in all cases: cell-based or functional assay
[1] = biological target: T1, HIV-1 JR-FL gp120 (HIV-1, isolate JR-FL)
[2] = biological target: HIV-1 67970 gp120 (HIV-1, isolate 67970)
[3] = biological target: T2, HIV-1 SF162 gp120 (HIV-1, isolate SF162, UniProt P19550 32-502)
[4] = biological target: T1, HIV-1 JR-FL gp120; remark: listed apart in the source
[5] = biological target: T3, HIV-1 89.6 gp120 (HIV-1, isolate 89.6, UniProt Q73372 32-508)
[6] = biological target: T4, HIV-1 93MW960 gp120 (HIV-1, isolate 93MW960)
[7] = biological target: T5, HIV-1 BaL gp120 (HIV-1, isolate BaL)
[8] = biological target: T2, HIV-1 SF162 gp120; set-up: unit not given beside the values
[9] = biological target: T3, HIV-1 89.6 gp120; set-up: unit not given beside the values
[10] = biological target: T2, HIV-1 SF162 gp120; remark: listed apart in the source
[11] = biological target: T1, HIV-1 JR-FL gp120; remark: listed apart in the source
[12] = biological target: T3, HIV-1 89.6 gp120; remark: listed apart in the source
[13] = biological target: T4, HIV-1 93MW960 gp120; remark: listed apart in the source
[14] = biological target: T5, HIV-1 BaL gp120; remark: listed apart in the source

Binder | IC50, neutralization of HIV-1 JR-FL (TZM-bl cells, no sCD4) [1] | IC50, neutralization of HIV-1 67970 (TZM-bl cells, no sCD4) [2] | IC50, ADCVI with neutrophils, SF162-infected PBMC [3] | IC50, ADCVI with neutrophils, JR-FL-infected PBMC [4] | IC50, ADCVI with neutrophils, 89.6-infected PBMC [5] | IC50, ADCVI with neutrophils, 93MW960-infected PBMC [6] | IC50, ADCVI with neutrophils, BaL-infected PBMC [7] | IC90, neutralization of HIV SF162 (TZM-bl assay) [8] | IC90, neutralization of HIV 89.6 (TZM-bl assay) [9] | IC50, ADCVI assay with PMN (+ PMN), SF162-infected PBMC [10] | IC50, ADCVI assay without PMN (- PMN), SF162-infected PBMC [10] | IC50, ADCVI assay with PMN (+ PMN), JR-FL-infected PBMC [11] | IC50, ADCVI assay without PMN (- PMN), JR-FL-infected PBMC [11] | IC50, ADCVI assay with PMN (+ PMN), 89.6-infected PBMC [12] | IC50, ADCVI assay without PMN (- PMN), 89.6-infected PBMC [12] | IC50, ADCVI assay with PMN (+ PMN), 93MW960-infected PBMC [13] | IC50, ADCVI assay without PMN (- PMN), 93MW960-infected PBMC [13] | IC50, ADCVI assay with PMN (+ PMN), BaL-infected PBMC [14] | IC50, ADCVI assay without PMN (- PMN), BaL-infected PBMC [14]
F425-A1g8 IgG1 antibody variant (antibody, V domains shown) VH: QEQLVESGGGVVQPGRSLRLSCEASGFIFSAFVLHWVRQAPGKGLEWVAVVWYDGNSKYYADSVKGRFTISRDTSQNTLHLQMDSLRPEDTAVYYCAREWVADDDTFDGFDVWGQGTMVTVSS VL: EIVLSQSPATLSLSPGERATLSCRASQSVTNSLAWYQQKPGQAPRLLIYDASNRATGIPARFSGSGSGTDFTLTISSLEPEDFAVYYCQQRSNWPPEVTFGPGTKVDIKR | > 40 µg/mL | > 40 µg/mL | > 40 µg/mL | > 40 µg/mL | > 40 µg/mL | 9.5 µg/mL | > 40 µg/mL | – | – | – | – | – | – | – | – | – | – | – | –
b12 IgA2 purified from CHO cells (antibody, V domains shown) VH: QVQLVQSGAEVKKPGASVKVSCQASGYRFSNFVIHWVRQAPGQRFEWMGWINPYNGNKEFSAKFQDRVTFTADTSANTAYMELRSLRSADTAVYYCARVGPYSWDDSPQDNYYMDVWGQGTTVIVSS VL: EIVLTQAPGTLSLSPGERATFSCRSSHSIRSRRVAWYQHKPGQAPRLVIHGVSNRASGISDRFSGSGSGTDFTLTITRVEPEDFALYYCQVYGASSYTFGQGTKLERKR | – | – | – | – | – | – | – | 1.03 | 6.75 | 0.3 µg/mL | 9.5 µg/mL | > 20 µg/mL | > 20 µg/mL | 14.5 µg/mL | > 20 µg/mL | 10 µg/mL | > 20 µg/mL | 2.1 µg/mL | > 20 µg/mL
b12 IgA2 expressed in milk (antibody, V domains shown) VH: QVQLVQSGAEVKKPGASVKVSCQASGYRFSNFVIHWVRQAPGQRFEWMGWINPYNGNKEFSAKFQDRVTFTADTSANTAYMELRSLRSADTAVYYCARVGPYSWDDSPQDNYYMDVWGQGTTVIVSS VL: EIVLTQAPGTLSLSPGERATFSCRSSHSIRSRRVAWYQHKPGQAPRLVIHGVSNRASGISDRFSGSGSGTDFTLTITRVEPEDFALYYCQVYGASSYTFGQGTKLERKR | – | – | – | – | – | – | – | 0.34 | 1.85 | 0.4 µg/mL | 6.6 µg/mL | – | 9.6 µg/mL | 3.9 µg/mL | 4.8 µg/mL | 3.3 µg/mL | > 20 µg/mL | 2.3 µg/mL | 19.3 µg/mL
b12 IgA2 purified from milk (antibody, V domains shown) VH: QVQLVQSGAEVKKPGASVKVSCQASGYRFSNFVIHWVRQAPGQRFEWMGWINPYNGNKEFSAKFQDRVTFTADTSANTAYMELRSLRSADTAVYYCARVGPYSWDDSPQDNYYMDVWGQGTTVIVSS VL: EIVLTQAPGTLSLSPGERATFSCRSSHSIRSRRVAWYQHKPGQAPRLVIHGVSNRASGISDRFSGSGSGTDFTLTITRVEPEDFALYYCQVYGASSYTFGQGTKLERKR | – | – | – | – | – | – | – | 0.79 | 8.37 | 0.3 µg/mL | 2.1 µg/mL | > 20 µg/mL | > 20 µg/mL | 17.1 µg/mL | > 20 µg/mL | 17.5 µg/mL | > 20 µg/mL | 2.2 µg/mL | 13.1 µg/mL
F425-A1g8 IgA1 antibody variant (antibody) heavy: QEQLVESGGGVVQPGRSLRLSCEASGFIFSAFVLHWVRQAPGKGLEWVAVVWYDGNSKYYADSVKGRFTISRDTSQNTLHLQMDSLRPEDTAVYYCAREWVADDDTFDGFDVWGQGTMVTVSSASLTSPKVFPLSLCSTQPDGNVVIACLVQGFFPQEPLSVTWSESGQGVTARNFPPSQDASGDLYTTSSQLTLPATQCLAGKSVTCHVKHYTNPSQDVTVPCPVPSTPPTPSPSTPPTPSPSCCHPRLSLHRPALEDLLLGSEANLTCTLTGLRDASGVTFTWTPSSGKSAVQGPPDRDLCGCYSVSSVLSGCAEPWNHGKTFTCTAAYPESKTPLTATLSKSGNTFRPEVHLLPPPSEELALNELVTLTCLARGFSPKDVLVRWLQGSQELPREKYLTWASRQEPSQGTTTFAVTSILRVAAEDWKKGDTFSCMVGHEALPLAFTQKTIDRLAGKPTHVNVSVVMAEVDGTCY light: not shown | 1.73 µg/mL | 23.3 µg/mL | 6.1 µg/mL | 16.6 µg/mL | > 40 µg/mL | 18.3 µg/mL | > 40 µg/mL | – | – | – | – | – | – | – | – | – | – | – | –

Reference: US20160039913A1 (LFB USA, published 2016)
